This test has as its target CCR5 (UniProt P51681). Briefly: cell-based or functional assay.
Chain of UniProt P51681 (P51681 whole entry): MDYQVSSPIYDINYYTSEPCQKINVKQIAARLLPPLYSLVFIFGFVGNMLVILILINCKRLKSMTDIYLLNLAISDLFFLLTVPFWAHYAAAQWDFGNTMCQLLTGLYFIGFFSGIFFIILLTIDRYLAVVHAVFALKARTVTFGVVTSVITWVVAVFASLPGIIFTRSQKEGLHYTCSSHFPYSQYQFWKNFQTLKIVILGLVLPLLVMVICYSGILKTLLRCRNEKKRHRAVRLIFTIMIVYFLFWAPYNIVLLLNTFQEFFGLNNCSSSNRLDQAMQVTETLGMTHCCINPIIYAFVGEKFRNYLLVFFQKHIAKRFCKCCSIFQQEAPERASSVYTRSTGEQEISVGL

The substance “NNY-RANTES (2-68) (from UniProt P13501 25-91) (ligand)” came in with an EC50, inhibition of HeLa P4-CCR5/HeLa-Env-ADA cell fusion (β-galactosidase reporter) of 0.323 nM. For the substance “AOP-RANTES (2-68) (from UniProt P13501 25-91) (ligand)”, the EC50, inhibition of HeLa P4-CCR5/HeLa-Env-ADA cell fusion (β-galactosidase reporter) turned out to be 1.81 nM.
